In assay [1] the target is T1, Flag-eRF1 (S. cerevisiae, UniProt P12385 1-437). The experiment in a line: co-IP + AUC.
Assay [2] has as its target T1, Flag-eRF1. The experiment in a line: co-IP + AUC. This is another data set of the same source.

B1: HSP60 (GFP fusion) (natural protein, S. cerevisiae, UniProt P19882 26-572, looked up)
chain: ELKFGVEGRASLLKGVETLAEAVAATLGPKGRNVLIEQPFGPPKITKDGVTVAKSIVLKDKFENMGAKLLQEVASKTNEAAGDGTTSATVLGRAIFTESVKNVAAGCNPMDLRRGSQVAVEKVIEFLSANKKEITTSEEIAQVATISANGDSHVGKLLASAMEKVGKEGVITIREGRTLEDELEVTEGMRFDRGFISPYFITDPKSSKVEFEKPLLLLSEKKISSIQDILPALEISNQSRRPLLIIAEDVDGEALAACILNKLRGQVKVCAVKAPGFGDNRKNTIGDIAVLTGGTVFTEELDLKPEQCTIENLGSCDSITVTKEDTVILNGSGPKEAIQERIEQIKGSIDITTTNSYEKEKLQERLAKLSGGVAVIRVGGASEVEVGEKKDRYDDALNATRAAVEEGILPGGGTALVKASRVLDEVVVDNFDQKLGVDIIRKAITRPAKQIIENAGEEGSVIIGKLIDEYGDDFAKGYDASKSEYTDMLATGIIDPFKVVRSGLVDASGVASLLATTEVAIVDAPEPPAAAGAGGMPGGMPGMPGMM
Regarding B1, the “% abundance in the Flag-eRF1 pull-down normalized to SUP35 (19S-200S)” value in the assay with Flag-eRF1 [1] was 11 ± 0.75%. Besides, in the assay with Flag-eRF1 [2], the “normalized AU-FDS intensity relative to SUP35-GFP (19S peak)” value was 0.069, the “normalized AU-FDS intensity relative to SUP35-GFP (28S peak)” value was found to be 0.11, the “normalized AU-FDS intensity relative to SUP35-GFP (39S peak)” value was 0.1 and the “normalized AU-FDS intensity relative to SUP35-GFP (57S peak)” value was found to be 0.11. In addition, the “normalized AU-FDS intensity relative to SUP35-GFP (77S-200S)” value with Flag-eRF1 [2] was 0.13.

B2: SSA2-GFP (natural protein)
chain: not shown
For the molecule B2, the “% abundance in the Flag-eRF1 pull-down normalized to SUP35 (19S-200S)” value with Flag-eRF1 [1] amounted to 33 ± 3.45%. Besides, in the assay with Flag-eRF1 [2], the “normalized AU-FDS intensity relative to SUP35-GFP (19S peak)” value is 0.28, the “normalized AU-FDS intensity relative to SUP35-GFP (28S peak)” value was 0.35, the “normalized AU-FDS intensity relative to SUP35-GFP (39S peak)” value amounted to 0.36 and the “normalized AU-FDS intensity relative to SUP35-GFP (57S peak)” value stood at 0.27. In addition, the “normalized AU-FDS intensity relative to SUP35-GFP (77S-200S)” value with Flag-eRF1 [2] was determined as 0.38.

B3: HSP26 (GFP fusion) (natural protein, S. cerevisiae, UniProt P15992 1-214, looked up)
chain: MSFNSPFFDFFDNINNEVDAFNRLLGEGGLRGYAPRRQLANTPAKDSTGKEVARPNNYAGALYDPRDETLDDWFDNDLSLFPSGFGFPRSVAVPVDILDHDNNYELKVVVPGVKSKKDIDIEYHQNKNQILVSGEIPSTLNEESKDKVKVKESSSGKFKRVITLPDYPGVDADNIKADYANGVLTLTVPKLKPQKDGKNHVKKIEVSSQESWGN
Turning to B3, the “% abundance in the Flag-eRF1 pull-down normalized to SUP35 (19S-200S)” value in the assay with Flag-eRF1 [1] came out at 7.6 ± 2.9%. Further, in the assay with Flag-eRF1 [2], the “normalized AU-FDS intensity relative to SUP35-GFP (19S peak)” value was determined as 0.087, the “normalized AU-FDS intensity relative to SUP35-GFP (28S peak)” value worked out at 0.12, the “normalized AU-FDS intensity relative to SUP35-GFP (39S peak)” value was determined as 0.056 and the “normalized AU-FDS intensity relative to SUP35-GFP (57S peak)” value is 0.052. In addition, the “normalized AU-FDS intensity relative to SUP35-GFP (77S-200S)” value with Flag-eRF1 [2] is 0.065.

B4: SSA1-GFP (natural protein)
chain: not shown
As to B4, in the assay with Flag-eRF1 [1], the “% abundance in the Flag-eRF1 pull-down normalized to SUP35 (19S-200S)” value is 30 ± 0.63%. Besides, in the assay with Flag-eRF1 [2], the “normalized AU-FDS intensity relative to SUP35-GFP (19S peak)” value came to 0.29, the “normalized AU-FDS intensity relative to SUP35-GFP (28S peak)” value amounted to 0.37, the “normalized AU-FDS intensity relative to SUP35-GFP (39S peak)” value was determined as 0.28 and the “normalized AU-FDS intensity relative to SUP35-GFP (57S peak)” value was 0.28. Moreover, the “normalized AU-FDS intensity relative to SUP35-GFP (77S-200S)” value with Flag-eRF1 [2] stood at 0.31.

B5: HSP82 (GFP fusion) (natural protein)
chain: not shown
For B5, the “% abundance in the Flag-eRF1 pull-down normalized to SUP35 (19S-200S)” value with Flag-eRF1 [1] is 8.6 ± 2.9%. Also, in the assay with Flag-eRF1 [2], the “normalized AU-FDS intensity relative to SUP35-GFP (19S peak)” value was found to be 0.066, the “normalized AU-FDS intensity relative to SUP35-GFP (28S peak)” value was found to be 0.13, the “normalized AU-FDS intensity relative to SUP35-GFP (39S peak)” value was 0.075 and the “normalized AU-FDS intensity relative to SUP35-GFP (57S peak)” value was 0.058. The “normalized AU-FDS intensity relative to SUP35-GFP (77S-200S)” value in the assay with Flag-eRF1 [2] was determined as 0.027.

B6: eRF1-GFP (natural protein, S. cerevisiae, UniProt P12385 1-437, looked up)
chain: MDNEVEKNIEIWKVKKLVQSLEKARGNGTSMISLVIPPKGQIPLYQKMLTDEYGTASNIKSRVNRLSVLSAITSTQQKLKLYNTLPKNGLVLYCGDIITEDGKEKKVTFDIEPYKPINTSLYLCDNKFHTEVLSELLQADDKFGFIVMDGQGTLFGSVSGNTRTVLHKFTVDLPKKHGRGGQSALRFARLREEKRHNYVRKVAEVAVQNFITNDKVNVKGLILAGSADFKTDLAKSELFDPRLACKVISIVDVSYGGENGFNQAIELSAEALANVKYVQEKKLLEAYFDEISQDTGKFCYGIDDTLKALDLGAVEKLIVFENLETIRYTFKDAEDNEVIKFAEPEAKDKSFAIDKATGQEMDVVSEEPLIEWLAANYKNFGATLEFITDKSSEGAQFVTGFGGIGAMLRYKVNFEQLVDESEDEYYDEDEGSDYDFI
In the case of B6, the “% abundance in the Flag-eRF1 pull-down normalized to SUP35 (19S-200S)” value with Flag-eRF1 [1] was found to be 13 ± 4.5%.

B7: HSC82 (GFP fusion) (natural protein)
chain: not shown
With B7, the “% abundance in the Flag-eRF1 pull-down normalized to SUP35 (19S-200S)” value in the assay with Flag-eRF1 [1] is 9.5 ± 3.5%. For the same molecule, in the assay with Flag-eRF1 [2], the “normalized AU-FDS intensity relative to SUP35-GFP (19S peak)” value came out at 0.08, the “normalized AU-FDS intensity relative to SUP35-GFP (28S peak)” value turned out to be 0.088, the “normalized AU-FDS intensity relative to SUP35-GFP (39S peak)” value was 0.11 and the “normalized AU-FDS intensity relative to SUP35-GFP (57S peak)” value worked out at 0.11. The “normalized AU-FDS intensity relative to SUP35-GFP (77S-200S)” value with Flag-eRF1 [2] was 0.083.

These data come from PMC8816864 (Proteins, 2021).
